# Data published in publication PMC13371181, “A paracrine-to-autocrine shunt of GREM1 fuels colorectal cancer metastasis via ACVR1C” (Molecular Cancer, 2026).
# “Also recorded” adds a separate entry of the source.
# T1: His-tagged full-length GREM1 (recombinant human GREM1-His) (human, UniProt O60565 25-184, red fluorescent label (NanoTemper, MO-L011) in the MST assays)
# T1 construct: also called recombinant GREM1; rhGREM1; source: bought: R&D, 5190-GR
# T1 sequence (looked up): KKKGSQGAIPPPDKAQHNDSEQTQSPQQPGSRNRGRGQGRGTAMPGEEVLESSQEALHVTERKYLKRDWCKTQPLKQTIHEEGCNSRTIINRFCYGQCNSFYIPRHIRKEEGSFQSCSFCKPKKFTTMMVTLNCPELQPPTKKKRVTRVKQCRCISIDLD
# How the values were obtained:
# FGFR1 (Homo sapiens) = FGFR1 (Homo sapiens) (UniProt P11362); details: cited from earlier work
# ACVR1C-ECD = experiment: MST binding of ACVR1C-ECD-Fc to GREM1-His or ACTIVIN B-His; design: species or system human; details: Monolith NT.115, ACVR1C-ECD-Fc 0–27.5 µM vs 50 nM red-fluorescently labeled His-protein, PBS pH 7.4, premium capillaries, n = 3 independent experiments, mean ± s.e.m.
# Description: Expi293F cells were transfected with a pcDNA3.4-ACVR1C-ECD-Fc and pcDNA3.4-ACVR1C-ECD-Fc-double mutant (E85A/T101A) expression vector to produce the target protein, which was subsequently purified using a Protein G column. Briefly, the coding sequence (CDS) of the human ACVR1C extracellular domain (ACVR1C-ECD, NM_145259.3, residues 1–113) fused to an Fc tag was cloned into the pcDNA3.4 vector. Expi293F cells were transfected with this construct, the supernatant was harvested 5 days post transfection.
# MST was carried out on a Monolith NT.115 instrument (NanoTemper Technologies GmbH, MO-L011). To evaluate ACVR1C-ECD or ACVR1C peptide or ACVR1C-ECD-double mutant (E85A/T101A) binding to GREM1-His or ACTIVIN B-His, an increasing concentration of purified ACVR1C-ECD-Fc protein (0–27.5 µM) or ACVR1C peptide (0–2.3 µM) or ACVR1C-ECD-double mutant (0–27.5 µM) was incubated with 50 nM red-fluorescently labeled (NanoTemper Technologies GmbH, MO-L011) GREM1-His protein (R&D, 5190-GR) or ACTIVIN B-His protein (SinoBiological, 10814-H08H). Experiments were carried out in a PBS buffer pH 7.4 using premium capillaries (NanoTemper Technologies GmbH, MO-K025).
# ACTIVIN B-His = ACTIVIN B-His (UniProt P09529); experiment: MST; Monolith NT.115; 50 nM red-fluorescently labelled GREM1-His or ACTIVIN B-His, unlabelled partner titrated (ACVR1C-ECD-Fc or double mutant 0–27.5 µM, ACVR1C peptide 0–2.3 µM); PBS pH 7.4; n = 3
# [1] = target: T1, His-tagged full-length GREM1 …; experiment: as above; details: both partners purified
# ACVR1C = experiment: Co-immunoprecipitation of GREM1 and ACVR1C; assay type: binding, human; details: co-IP, truncation or point mutants, HCT116 cells
# Procedure: HCT116 cells were transfected with the indicated plasmids and lysed in NP40 lysis buffer (Beyotime, P0013F) supplemented with protease inhibitor cocktail (Thermo, 78446). Lysates were incubated with the indicated Anti-Flag nanobody magarose beads (Ktsm-life, KTSM1338), Anti-HA nanobody magarose beads (Ktsm-life, KTSM1335) or Anti-GFP nanobody magarose beads (Ktsm-life, KTSM1334) overnight at 4 °C. The protein complex was washed four times with the NP40 lysis buffer, eluted with 1×loading buffer (Beyotime, P0015) by boiling for 5 min, followed by mass spectrometry and immunoblotting with the indicated antibodies.
# Protein was extracted from the cells with RIPA buffer (Beyotime, P0018) or NP40 lysis buffer (Beyotime, P0013F) and separated by SDS-PAGE, and transferred to polyvinylidene difluoride membranes. Primary antibodies against GREM1 (1:1,000, SinoBiological, 50016-R117), ACVR1C (1:1,000, Thermo, PA587475), Flag-tag (1:1,000, CST, 14793), HA-tag (1:1,000, CST, 3724), E-Cadherin (1:1,000, CST, 3195), β-Catenin (1:1,000, CST, 8480), ZEB1 (1:1,000, CST, 3396), Snail (1:1,000, CST, 3879), SMAD2/3 (1:1,000, CST, 8685), p-SMAD2/3 (1:1,000, CST, 8828), SMAD1 (1:1,000, CST, 6944), p-SMAD1/5/9 (1:1,000, CST, 13820), TGFβ (1:1,000, CST, 3709), TGFβR1 (0.3 µg/mL, R&D, AF3025), β-actin (1:5,000, Beyotime, AF0003) and GAPDH (1:5,000, Beyotime, AF0006) were used in this study. Peroxidase-conjugated secondary antibody (1:10,000, Cell Signaling Technology, 7074, 7076) was used and signal was visualized using an enhanced chemiluminescence assay (ECL, Thermo), according to the manufacturer’s protocol. Band intensity was quantified using Fiji (ImageJ) by grayscale analysis.
# [2] = tested on: CRC cells (SW480, HCT116, and MC38); experiment: GREM1 withdrawal assay, RT–qPCR and immunoblot; assay type: cell-based, human (SW480, mouse (MC38); details: rhGREM1 or rmGrem1 200 ng/mL 24 h, then GREM1-free medium 2 and 4 days
# Procedure: To determine whether tumor cells that have acquired signaling autonomy can sustain GREM1 expression in the absence of external stimulation, we performed a GREM1 withdrawal assay. CRC cells (SW480, HCT116, and MC38) were first pulsed with rhGREM1 or recombinant mouse GREM1 (rmGrem1) for 24 h to initiate the signaling response. The medium containing rhGREM1 or rmGrem1 was then thoroughly removed, replaced with fresh GREM1-free medium, and the cells were cultured for an additional 4 days. […] This persistent, self-sustaining expression supports our conclusion that the initial rhGREM1 or rmGrem1 stimulation triggers a positive feedback loop of GREM1 transcription within CRC cells.
# Protein was extracted from the cells with RIPA buffer (Beyotime, P0018) or NP40 lysis buffer (Beyotime, P0013F) and separated by SDS-PAGE, and transferred to polyvinylidene difluoride membranes. […] Band intensity was quantified using Fiji (ImageJ) by grayscale analysis.
# Total RNA was extracted using Trizol reagent (Invitrogen, 15596026). […] The SYBR Green Premix Pro Taq HS qPCR Kit (Accurate Biology, AG11701) was then used to quantify mRNA expression according to the manufacturer’s instructions. All results were calculated using the 2^−ΔΔCt method. […]
# FGFR1 (Homo sapiens), sequence (P11362 22-376): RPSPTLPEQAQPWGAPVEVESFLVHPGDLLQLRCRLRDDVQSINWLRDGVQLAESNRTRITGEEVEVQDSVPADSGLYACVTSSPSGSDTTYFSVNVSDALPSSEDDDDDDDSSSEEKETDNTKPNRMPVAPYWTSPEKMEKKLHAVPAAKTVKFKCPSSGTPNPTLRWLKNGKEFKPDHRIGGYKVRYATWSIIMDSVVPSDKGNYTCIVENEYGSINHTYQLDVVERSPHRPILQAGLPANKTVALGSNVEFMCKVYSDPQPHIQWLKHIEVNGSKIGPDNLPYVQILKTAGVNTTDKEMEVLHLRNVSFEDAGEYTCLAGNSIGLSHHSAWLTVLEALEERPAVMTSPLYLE
molecule,measurement,setting,value
GREM1 (from UniProt O60565),Kd,FGFR1 (Homo sapiens),10.6 nM
"ACTIVIN B: a known ligand of ACVR1C; ACTIVIN B-His protein (SinoBiological, 10814-H08H)",Kd,ACVR1C-ECD,854 ± 127 nM
"Fc-tagged ACVR1C extracellular domain (ACVR1C-ECD, AA1–113) (Fc fusion, human, UniProt Q8NER5-1 21-113, looked up, signal peptide in the construct; Vector pcDNA3.4; also called ACVR1C-ECD-Fc; recombinant human ACVR1C-ECD and Fc chimera protein; source: Expi293F, transfected, purified from supernatant (Protein G column, ion exchange)) ELSPGLKCVCLLCDSSNFTCQTEGACWASVMLTNGKEQVIKSCVSLPELNAQVFCHSSNNVTKTECCFTDFCNNITLHLPTASPNAPKLGPME",Kd,ACTIVIN B-His,854 nM
same,Kd,[1],67.7 nM
"TECCFTDFCNNITLHLPTA (peptide, UniProt Q8NER5 84-102, looked up, ACVR1C, human, residues 84–102) [ACVR1C peptide (amino acid residues 84–102 of ACVR1C)]",Kd,[1],92.3 nM
"E85A: ACVR1C single mutant (protein, UniProt Q8NER5 21-493, looked up, variant E85A) Activin receptor type-1C: ELSPGLKCVCLLCDSSNFTCQTEGACWASVMLTNGKEQVIKSCVSLPELNAQVFCHSSNNVTKTACCFTDFCNNITLHLPTASPNAPKLGPMELAIIITVPVCLLSIAAMLTVWACQGRQCSYRKKKRPNVEEPLSECNLVNAGKTLKDLIYDVTASGSGSGLPLLVQRTIARTIVLQEIVGKGRFGEVWHGRWCGEDVAVKIFSSRDERSWFREAEIYQTVMLRHENILGFIAADNKDNGTWTQLWLVSEYHEQGSLYDYLNRNIVTVAGMIKLALSIASGLAHLHMEIVGTQGKPAIAHRDIKSKNILVKKCETCAIADLGLAVKHDSILNTIDIPQNPKVGTKRYMAPEMLDDTMNVNIFESFKRADIYSVGLVYWEIARRCSVGGIVEEYQLPYYDMVPSDPSIEEMRKVVCDQKFRPSIPNQWQSCEALRVMGRIMRECWYANGAARLTALRIKKTISQLCVKEDCKA",effect of deletion or mutation on GREM1–ACVR1C interaction,ACVR1C,significantly abrogated the GREM1–ACVR1C interaction
same,effect of deletion or mutation on GREM1–ACVR1C interaction,ACVR1C; listed as AA85 mutant (M2),impaired
"T101A: ACVR1C single mutant (protein, left off: Flag, end not stated, state not stated | GFP, end not stated, state not stated, ACVR1C single mutant) ELSPGLKCVCLLCDSSNFTCQTEGACWASVMLTNGKEQVIKSCVSLPELNAQVFCHSSNNVTKTECCFTDFCNNITLHLPAASPNAPKLGPMELAIIITVPVCLLSIAAMLTVWACQGRQCSYRKKKRPNVEEPLSECNLVNAGKTLKDLIYDVTASGSGSGLPLLVQRTIARTIVLQEIVGKGRFGEVWHGRWCGEDVAVKIFSSRDERSWFREAEIYQTVMLRHENILGFIAADNKDNGTWTQLWLVSEYHEQGSLYDYLNRNIVTVAGMIKLALSIASGLAHLHMEIVGTQGKPAIAHRDIKSKNILVKKCETCAIADLGLAVKHDSILNTIDIPQNPKVGTKRYMAPEMLDDTMNVNIFESFKRADIYSVGLVYWEIARRCSVGGIVEEYQLPYYDMVPSDPSIEEMRKVVCDQKFRPSIPNQWQSCEALRVMGRIMRECWYANGAARLTALRIKKTISQLCVKEDCKA",effect of deletion or mutation on GREM1–ACVR1C interaction,ACVR1C,significantly abrogated the GREM1–ACVR1C interaction
same,effect of deletion or mutation on GREM1–ACVR1C interaction,ACVR1C; listed as AA101 mutant (M3) of ACVR1C,impaired
"Q101A/T102A/T112A/N115A quadruple mutation in GREM1: GREM1 point mutant (protein, left off: HA, end not stated, state not stated | mCherry, end not stated, state not stated, GREM1 point mutant) KKKGSQGAIPPPDKAQHNDSEQTQSPQQPGSRNRGRGQGRGTAMPGEEVLESSQEALHVTERKYLKRDWCKTQPLKAAIHEEGCNSRAIIARFCYGQCNSFYIPRHIRKEEGSFQSCSFCKPKKFTTMMVTLNCPELQPPTKKKRVTRVKQCRCISIDLD",effect of deletion or mutation on GREM1–ACVR1C interaction,ACVR1C,significantly abrogated the GREM1–ACVR1C interaction
same,effect of deletion or mutation on GREM1–ACVR1C interaction,ACVR1C; listed as AA101/102/112/115 mutant (M3) of GREM1,impaired
"rmGrem1: recombinant mouse GREM1 (protein, UniProt O70326 25-184, looked up) Gremlin-1: KKKGSQGAIPPPDKAQHNDSEQTQSPPQPGSRTRGRGQGRGTAMPGEEVLESSQEALHVTERKYLKRDWCKTQPLKQTIHEEGCNSRTIINRFCYGQCNSFYIPRHIRKEEGSFQSCSFCKPKKFTTMMVTLNCPELQPPTKKKRVTRVKQCRCISIDLD",endogenous GREM1 expression after withdrawal,[2],not only maintained but in some cases further increased even after the withdrawal of exogenous GREM1; also recorded: maintained elevated endogenous GREM1 expression even after withdrawal of exogenous GREM1
